Test [1] concerns the target T1, recombinant human IGF-1R (rhIGF-1R), immobilized on plates or polystyrene beads (human, UniProt P08069 31-935).
T1 construct: also called immobilized recombinant human IGF-1R; IGF-1R-coated beads
Put plainly: labeled antibody on rhIGF-1R-coated beads; competitor: unlabeled R1.

Test [2] concerns the target T1, recombinant human IGF-1R (rhIGF-1R), …. Put plainly: labeled antibody on rhIGF-1R-coated beads; competitor: unlabeled 24-60.
For test [3] the target is unchanged. The test is described as follows: labeled antibody on rhIGF-1R-coated beads; competitor: unlabeled 2C8.
The target is the same in test [4]. Put plainly: labeled antibody on rhIGF-1R-coated beads; competitor: unlabeled hR1.
Test [5] addresses recombinant human insulin receptor (rhIR), immobilized (human, UniProt P06213-2 28-944, limits assumed). Put plainly: hybridoma screening; method not described.
Test [6] deals with T1, recombinant human IGF-1R (rhIGF-1R), …. The test is described as follows: labeled antibody on rhIGF-1R-coated beads; competitor: unlabeled 17-69.
Test [7] shares this target. The test is described as follows: labeled antibody on rhIGF-1R-coated beads; competitor: unlabeled 1-2.
Test [8] shares this target. Put plainly: labeled antibody on rhIGF-1R-coated beads; competitor: unlabeled cR1.
For test [9] the target is unchanged. Put plainly: labeled antibody on rhIGF-1R-coated beads; competitor: unlabeled 24-57.
The target is the same in test [10]. The test is described as follows: labeled antibody on rhIGF-1R-coated beads; competitor: unlabeled 3B7.
The target is the same in test [11]. The test is described as follows: labeled antibody on rhIGF-1R-coated beads; competitor: unlabeled αIR-3.
Test [12] has the same target. The test is described as follows: labeled antibody on rhIGF-1R-coated beads; competitor: unlabeled 1H7.
For test [13] the target is unchanged. Put plainly: labeled antibody on rhIGF-1R-coated beads; competitor: unlabeled 24-31.
Test [14] shares this target. Put plainly: labeled antibody on rhIGF-1R-coated beads; competitor: unlabeled MAB391.

Sequence of recombinant human insulin receptor (rhIR), immobilized (P06213 other isoform, or with tags, fused parts or gaps limits assumed): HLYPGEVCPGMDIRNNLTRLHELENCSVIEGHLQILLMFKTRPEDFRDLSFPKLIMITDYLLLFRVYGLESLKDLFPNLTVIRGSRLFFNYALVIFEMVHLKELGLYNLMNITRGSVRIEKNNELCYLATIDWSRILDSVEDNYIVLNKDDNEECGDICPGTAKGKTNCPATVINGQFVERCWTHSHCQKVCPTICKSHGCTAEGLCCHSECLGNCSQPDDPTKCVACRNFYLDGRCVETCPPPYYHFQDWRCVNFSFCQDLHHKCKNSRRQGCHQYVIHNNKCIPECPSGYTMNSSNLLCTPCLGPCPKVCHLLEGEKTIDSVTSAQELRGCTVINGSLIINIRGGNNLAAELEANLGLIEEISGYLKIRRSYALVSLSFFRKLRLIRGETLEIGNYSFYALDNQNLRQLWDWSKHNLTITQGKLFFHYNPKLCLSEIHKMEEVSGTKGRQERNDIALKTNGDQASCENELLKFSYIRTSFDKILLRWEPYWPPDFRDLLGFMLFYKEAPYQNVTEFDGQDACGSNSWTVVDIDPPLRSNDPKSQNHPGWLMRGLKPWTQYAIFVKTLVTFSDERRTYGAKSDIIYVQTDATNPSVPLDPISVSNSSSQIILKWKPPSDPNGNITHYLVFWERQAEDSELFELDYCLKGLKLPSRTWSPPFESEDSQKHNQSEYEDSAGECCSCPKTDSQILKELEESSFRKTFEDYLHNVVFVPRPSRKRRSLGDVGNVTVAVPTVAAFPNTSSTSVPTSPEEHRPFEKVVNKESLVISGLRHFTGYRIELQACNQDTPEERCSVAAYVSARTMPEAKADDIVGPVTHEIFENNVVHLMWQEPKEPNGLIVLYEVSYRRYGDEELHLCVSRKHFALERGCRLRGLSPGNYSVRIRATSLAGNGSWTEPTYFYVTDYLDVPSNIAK

B1: mouse anti-IGF-1R antibody R1 (ML04R1) (antibody, V domains shown)
VH: EVKLVESGGGLVQPGGSLKLSCATSGFTFSDYYMYWVRQTPEKRLEWVAYITNYGGSTYYPDTVKGRFTISRDNAKNTLYLQMSRLRSEDTAMYFCARQSNYDYDGWFAYWGQGTTVTVSS
VL: DIVMTQSHKFMSTSVGDRVSITCKASQEVGTAVAWYQQKPGQSPKLLIYWASTRHTGVPDRFTGSGSGTDFTLTISNVQSEDLADYFCQQYSNYPLTFGAGAKLELKR
notes: Used unlabeled or tagged with a fluorescent probe (PE); also called murine R1; clone C-11
In the case of B1, the “% binding” value in test [1] was 0%; in [2], 43%; in [3], 100%; in test [4], 0%; in test [6] it was 100%; in test [7] it was 100%. Moreover, the “% binding” value in [8] was 0%; in [9] it was 100%; in test [10] it was 117%; in test [11], 143%; in test [12], 150%; in [13], 100%. For the same molecule, in test [14], the “% binding” value stood at 100%. Also, in [5], the binding result is reported as “no binding”.

Values taken from US20160333098A1 (published 2016).
